Test results as given in paper PMC10891134, “Bacteria employ lysine acetylation of transcriptional regulators to adapt gene expression to cellular metabolism” (Nature Communications, 2024).
Where a chain is given by its changes, count along the chain named.

Key:
[1] = target: RutR AcK7/11 K7AcK;K11AcK (Escherichia coli K12?) (UniProt P0ACU2); assay: SPR; details: ITC: 100 mM potassium phosphate pH 6.4, 150 mM NaCl, 5 mM MgCl2, 2 mM b-ME, 20 or 25 C; SPR: 100 mM potassium phosphate pH 6.4, 300 mM NaCl, 0.05% Tween20 …
RutR AcK7/11 K7AcK;K11AcK (Escherichia coli K12?), sequence (P0ACU2 whole entry): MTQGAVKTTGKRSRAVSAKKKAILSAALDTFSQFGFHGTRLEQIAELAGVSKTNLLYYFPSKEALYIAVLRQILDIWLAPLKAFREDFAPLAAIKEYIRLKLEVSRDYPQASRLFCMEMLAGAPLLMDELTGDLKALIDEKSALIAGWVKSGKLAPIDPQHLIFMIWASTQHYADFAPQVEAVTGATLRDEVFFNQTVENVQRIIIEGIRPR

[2] = target: RutR AcK11 K11AcK (Escherichia coli K12?) (UniProt P0ACU2); assay: ITC; details: ITC: 100 mM potassium phosphate pH 6.4, 150 mM NaCl, 5 mM MgCl2, 2 mM b-ME, 20 or 25 C; SPR: 100 mM potassium phosphate pH 6.4, 300 mM NaCl, 0.05% Tween20 …
RutR AcK11 K11AcK (Escherichia coli K12?), sequence (P0ACU2 whole entry): as above

[3] = target: RutR AcK7/11 K7AcK;K11AcK (Escherichia coli K12?) (UniProt P0ACU2); assay: ITC; details: ITC: 100 mM potassium phosphate pH 6.4, 150 mM NaCl, 5 mM MgCl2, 2 mM b-ME, 20 or 25 C; SPR: 100 mM potassium phosphate pH 6.4, 300 mM NaCl, 0.05% Tween20 …
[4] = target: RutR AcK150 K150AcK (Escherichia coli K12?) (UniProt P0ACU2); assay: ITC; details: ITC: 100 mM potassium phosphate pH 6.4, 150 mM NaCl, 5 mM MgCl2, 2 mM b-ME, 20 or 25 C; SPR: 100 mM potassium phosphate pH 6.4, 300 mM NaCl, 0.05% Tween20 …
[5] = target: RutR AcK95 K95AcK (Escherichia coli K12?) (UniProt P0ACU2); assay: ITC; details: ITC: 100 mM potassium phosphate pH 6.4, 150 mM NaCl, 5 mM MgCl2, 2 mM b-ME, 20 or 25 C; SPR: 100 mM potassium phosphate pH 6.4, 300 mM NaCl, 0.05% Tween20 …
[6] = target: RutR AcK7 K7AcK (Escherichia coli K12?) (UniProt P0ACU2); assay: ITC; details: ITC: 100 mM potassium phosphate pH 6.4, 150 mM NaCl, 5 mM MgCl2, 2 mM b-ME, 20 or 25 C; SPR: 100 mM potassium phosphate pH 6.4, 300 mM NaCl, 0.05% Tween20 …
RutR AcK7 K7AcK (Escherichia coli K12?), sequence (P0ACU2 whole entry): as above

[7] = target: RutR AcK21 K21AcK (Escherichia coli K12?) (UniProt P0ACU2); assay: ITC; details: ITC: 100 mM potassium phosphate pH 6.4, 150 mM NaCl, 5 mM MgCl2, 2 mM b-ME, 20 or 25 C; SPR: 100 mM potassium phosphate pH 6.4, 300 mM NaCl, 0.05% Tween20 …
[8] = target: RutR AcK62 K62AcK (Escherichia coli K12?) (UniProt P0ACU2); assay: ITC; details: ITC: 100 mM potassium phosphate pH 6.4, 150 mM NaCl, 5 mM MgCl2, 2 mM b-ME, 20 or 25 C; SPR: 100 mM potassium phosphate pH 6.4, 300 mM NaCl, 0.05% Tween20 …
RutR AcK62 K62AcK (Escherichia coli K12?), sequence (P0ACU2 whole entry): as above

[9] = target: RutR AcK7 K7AcK (Escherichia coli K12?) (UniProt P0ACU2); assay: SPR; details: ITC: 100 mM potassium phosphate pH 6.4, 150 mM NaCl, 5 mM MgCl2, 2 mM b-ME, 20 or 25 C; SPR: 100 mM potassium phosphate pH 6.4, 300 mM NaCl, 0.05% Tween20 …
[10] = target: the molecule itself; assay: SEC; analytical size-exclusion chromatography of the purified RutR proteins; elution as dimer; column and buffer not given
RutR Δ1-12 = target: T1, RutR Δ1-12 (UniProt P0ACU2 13-212, del1-12); assay: EMSA; ITC: 100 mM potassium phosphate pH 6.4, 150 mM NaCl, 5 mM MgCl2, 2 mM b-ME, 20 or 25 C; SPR: 100 mM potassium phosphate pH 6.4, 300 mM NaCl, 0.05% Tween20, 25 C; EMSA: 20 mM Tris-HCl pH 7.5, 100 mM KCl, 2 mM DTT, 10% glycerol, 25 nM DNA, 30 C; details: protein: recombinant; tags: His6; chain copies: 2; blunt
T1 sequence: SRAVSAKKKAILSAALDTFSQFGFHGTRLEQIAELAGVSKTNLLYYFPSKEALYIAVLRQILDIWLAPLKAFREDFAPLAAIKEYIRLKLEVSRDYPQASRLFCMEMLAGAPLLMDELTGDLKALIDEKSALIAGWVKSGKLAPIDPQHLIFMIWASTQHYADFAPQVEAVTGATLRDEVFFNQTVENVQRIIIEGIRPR

RutR K52Q = target: T2, RutR K52Q (UniProt P0ACU2 1-212, K52Q); assay: ITC; ITC: 100 mM potassium phosphate pH 6.4, 150 mM NaCl, 5 mM MgCl2, 2 mM b-ME, 20 or 25 C; SPR: 100 mM potassium phosphate pH 6.4, 300 mM NaCl, 0.05% Tween20, 25 C; EMSA: 20 mM Tris-HCl pH 7.5, 100 mM KCl, 2 mM DTT, 10% glycerol, 25 nM DNA, 30 C; details: protein: recombinant; tags: His6; chain copies: 2; blunt
T2 sequence: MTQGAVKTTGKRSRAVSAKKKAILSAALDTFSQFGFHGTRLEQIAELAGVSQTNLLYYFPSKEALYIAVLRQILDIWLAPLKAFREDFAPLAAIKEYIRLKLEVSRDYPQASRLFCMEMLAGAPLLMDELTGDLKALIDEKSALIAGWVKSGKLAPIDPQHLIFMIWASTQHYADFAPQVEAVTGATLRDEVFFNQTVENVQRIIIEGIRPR

RutR K7R/K11R = target: T3, RutR K7R/K11R (UniProt P0ACU2 1-212, K7R;K11R); assay: as above; details: protein: recombinant; tags: His6; chain copies: 2; blunt
T3 sequence: T2 sequence with K7R, K11R, Q52K

RutR K7Q = target: T4, RutR K7Q (UniProt P0ACU2 1-212, K7Q); assay: as above; details: protein: recombinant; tags: His6; chain copies: 2; blunt
T4 sequence: T2 sequence with K7Q, Q52K

RutR K52R = target: T5, RutR K52R (UniProt P0ACU2 1-212, K52R); assay: as above; details: protein: recombinant; tags: His6; chain copies: 2; blunt
T5 sequence: T2 sequence with Q52R

RutR K7Q/K11Q = target: T6, RutR K7Q/K11Q (UniProt P0ACU2 1-212, K7Q;K11Q); assay: as above; details: protein: recombinant; tags: His6; chain copies: 2; blunt
T6 sequence: T2 sequence with K7Q, K11Q, Q52K

RutR K11Q = target: T7, RutR K11Q (UniProt P0ACU2 1-212, K11Q); assay: as above; details: protein: recombinant; tags: His6; chain copies: 2; blunt
T7 sequence: T2 sequence with K11Q, Q52K

RutR WT = target: T8, RutR WT (UniProt P0ACU2 1-212); assay: as above; details: protein: recombinant; tags: His6; chain copies: 2; blunt
T8 sequence: T2 sequence with Q52K

GTTTTAATGTAAATTTTGACCATTTGGTCCACTTTTTTCTGCTCGT (double strand) [biotin-boxcarA]
binding signal (fold reduced affinity vs WT) [1]: 8

GTTTTATGTGCAACTGTTTTGACCGTTTAGTCCACTTTTTACCAGATATTTTAG (double strand) [boxrutA]
Kd [2]: 95 nM | Kd [3]: 251 nM | Kd [4]: 72 nM | Kd [5]: 32 nM | Kd [6]: 94 nM | Kd [7]: 58 nM

GTTTTAATGTAAATTTTGACCATTTGGTCCACTTTTTTCTGCTCGT (double strand) [boxcarA]
Kd [2]: 82 nM | Kd [3]: 300 nM | Kd [4]: 40 nM | Kd [5]: 19 nM | Kd [6]: 73 nM | Kd [8]: 1120 nM | Kd [7]: 12 nM

GTTTTATGTGCAACTGTTTTGACCGTTTAGTCCACTTTTTACCAGATATTTTAG (double strand) [biotin-boxrutA]
Kd [1]: 76.2 nM | Kd [9]: 9.06 nM

B1: non-acetylated RutR (pyrimidine utilization repressor) wild type (natural protein, E. coli, UniProt P0ACU2 1-212, looked up)
chain: T2 sequence with Q52K
notes: RutR, TetR-family transcriptional regulator of Escherichia coli; called full-length RutR WT; Expressed from a modified pRSFDuet-1 that carries a G to P mutation after the start Met of the tag region; No tag cleavage is described; also called RutR WT; source: E. coli BL21 (DE3), purified (Ni-NTA, SEC)
stoichiometry N [10]: 2

B2: RutR AcK52 (site-specifically K52-acetylated RutR) (natural protein, E. coli)
chain: T2 sequence with Q52K
modifications: acetyl-lysine at 52
notes: RutR of Escherichia coli; rutR gene as in m1 with an amber stop codon at K52 for acetyl-L-lysine; no electron density for the N-terminal 12 (chain A) or 11 (chain B) residues in the structure; Same rutR construct as m1 apart from the amber codon; constructs are in Supplementary Data 4; also called RutR AcK52•uracil; source: E. coli BL21 (DE3), genetic code expansion (acetyl-L-lysine at an amber …)
stoichiometry N [10]: 2

B3: RutR AcK21 (site-specifically K21-acetylated RutR) (natural protein, E. coli)
chain: T2 sequence with Q52K
modifications: acetyl-lysine at 21
notes: RutR of Escherichia coli; rutR gene as in m1 with an amber stop codon at K21 for acetyl-L-lysine; Same rutR construct as m1 apart from the amber codon; constructs are in Supplementary Data 4; source: E. coli BL21 (DE3), genetic code expansion (acetyl-L-lysine at an amber codon), purified
stoichiometry N [10]: 2

B4: RutR AcK11 (site-specifically K11-acetylated RutR) (natural protein, E. coli)
chain: T2 sequence with Q52K
modifications: acetyl-lysine at 11
notes: RutR of Escherichia coli; rutR gene as in m1 with an amber stop codon at K11 for acetyl-L-lysine; Same rutR construct as m1 apart from the amber codon; constructs are in Supplementary Data 4; source: E. coli BL21 (DE3), genetic code expansion (acetyl-L-lysine at an amber codon), purified
stoichiometry N [10]: 2

B5: RutR AcK7 (site-specifically K7-acetylated RutR) (natural protein, E. coli)
chain: T2 sequence with Q52K
modifications: acetyl-lysine at 7
notes: RutR of Escherichia coli; rutR gene as in m1 with an amber stop codon at K7 for acetyl-L-lysine; Same rutR construct as m1 apart from the amber codon; constructs are in Supplementary Data 4; source: E. coli BL21 (DE3), genetic code expansion (acetyl-L-lysine at an amber codon), purified
stoichiometry N [10]: 2

B6: RutR AcK62 (site-specifically K62-acetylated RutR) (natural protein, E. coli)
chain: T2 sequence with Q52K
modifications: acetyl-lysine at 62
notes: RutR of Escherichia coli; rutR gene as in m1 with an amber stop codon at K62 for acetyl-L-lysine; Same rutR construct as m1 apart from the amber codon; constructs are in Supplementary Data 4; source: E. coli BL21 (DE3), genetic code expansion (acetyl-L-lysine at an amber codon), purified
stoichiometry N [10]: 2

B7: double-acetylated RutR AcK7/11 (natural protein, E. coli)
chain: T2 sequence with Q52K
modifications: acetyl-lysine at 7 and at 11
notes: RutR of Escherichia coli; rutR gene as in m1 with amber stop codons at K7 and K11 for acetyl-L-lysine; Same rutR construct as m1 apart from the amber codons; constructs are in Supplementary Data 4; also called K7- and K11-double-acetylated RutR; source: E. coli BL21 (DE3), genetic code expansion with an additional plasmid for the optimized MbtRNAopt, purified
stoichiometry N [10]: 2

B8: RutR AcK95 (site-specifically K95-acetylated RutR) (natural protein, E. coli)
chain: T2 sequence with Q52K
modifications: acetyl-lysine at 95
notes: RutR of Escherichia coli; rutR gene as in m1 with an amber stop codon at K95 for acetyl-L-lysine; Same rutR construct as m1 apart from the amber codon; constructs are in Supplementary Data 4; source: E. coli BL21 (DE3), genetic code expansion (acetyl-L-lysine at an amber codon), purified
stoichiometry N [10]: 2

B9: RutR AcK150 (site-specifically K150-acetylated RutR) (natural protein, E. coli)
chain: T2 sequence with Q52K
modifications: acetyl-lysine at 150
notes: RutR of Escherichia coli; rutR gene as in m1 with an amber stop codon at K150 for acetyl-L-lysine; Same rutR construct as m1 apart from the amber codon; constructs are in Supplementary Data 4; source: E. coli BL21 (DE3), genetic code expansion (acetyl-L-lysine at an amber codon), purified
stoichiometry N [10]: 2

B10: boxrutA (dsDNA)
DNA 1: GTTTTATGTGCAACTGTTTTGACCGTTTAGTCCACTTTTTACCAGATATTTTAG
DNA 2: CTAAAATATCTGGTAAAAAGTGGACTAAACGGTCAAAACAGTTGCACATAAAAC
binding result (RutR Δ1-12): binds | Kd (RutR K52Q): 2420 ± 961 nM | Kd (RutR K7R/K11R): 47 ± 20 nM | Kd (RutR K7Q): 57 ± 20 nM | Kd (RutR K52R): 42 ± 30 nM | Kd (RutR K7Q/K11Q): 540 ± 158 nM | Kd (RutR K11Q): 332 ± 179 nM | Kd (RutR WT): 44 ± 21 nM

B11: boxcarA (dsDNA)
DNA 1: GTTTTAATGTAAATTTTGACCATTTGGTCCACTTTTTTCTGCTCGT
DNA 2: ACGAGCAGAAAAAAGTGGACCAAATGGTCAAAATTTACATTAAAAC
binding result (RutR Δ1-12): binds | Kd (RutR K52Q): 1220 ± 1130 nM | Kd (RutR K7R/K11R): 17 ± 1 nM | Kd (RutR K7Q): 26 ± 12 nM | Kd (RutR K52R): 61 ± 36 nM | Kd (RutR K7Q/K11Q): 153 ± 43 nM | Kd (RutR K11Q): 42 ± 16 nM | Kd (RutR WT): 28 ± 1 nM
